Here are results for five molecules from article PMC5852081, “The preprophase band-associated kinesin-14 OsKCH2 is a processive minus-end-directed microtubule motor” (Nature Communications, 2018).

Series [1] concerns the target GFP-OsKCH1/KCH2 (O. sativa) (UniProt Q0IMS9). Briefly: single-molecule photobleaching (TIRF microscopy); GFP-tagged motors bound to surface-immobilized microtubules in the single-molecule motility buffer without ATP, room temperature; photobleaching steps counted.
Series [2] has as its target GFP-OsKCH2(289–720) (O. sativa). Briefly: sucrose gradient centrifugation; 5–20% sucrose gradient in BRB80 with 25 mM KCl, 150,000 x g, 4 °C, 18 h; fractions by SDS-PAGE; standards CA, BSA, AD, amylase, apoferritin.
In series [3] the target is GFP-OsKCH2(289–767) (O. sativa). Described as above.
Series [4] has the same target. Briefly: single-molecule photobleaching (TIRF microscopy); GFP-tagged motors bound to surface-immobilized microtubules in the single-molecule motility buffer without ATP, room temperature; photobleaching steps counted.
Series [5] concerns the target GFP-OsKCH2(289–767)^T (not stated | O. sativa). Described as above.
Series [6] concerns the molecule itself. Kind of series: not stated; oligomeric state of GFP-OsKCH1(292–744), Supplementary Fig. 5d, e; legend not shown.

In general, stoichiometry N refers to the number of molecules, sites or subunits per partner or assembly.

“GFP-OsKCH1/KCH2 (from UniProt Q0IMS9 292-705) (domain or fragment)” came in with a stoichiometry N in series [1] of 2.

As to “GFP-OsKCH2(289–720) (domain or fragment)”, in series [2], the stoichiometry N came to 2.

With “GFP-OsKCH2(289–767) (domain or fragment)”, the stoichiometry N in series [3] and in series [4] was 2 each time.

On to “GFP-OsKCH2(289–767)^T (domain or fragment)”, for which the stoichiometry N in series [5] turned out to be 4.

B1: GFP-OsKCH1(292–744) (domain or fragment, O. sativa, UniProt Q0IMS9 292-744, looked up)
chain: GEVKQFQLEAQTNFDVQQKQIQELKGALSFVKSGMEQLRLQYSEEFAKLGKHFYTLSNAASSYHKVLEENRKLYNQIQDLKGNIRVYCRVRPFLPGHRSLSSSVADTEERTITIITPTKYGKDGCKSFSFNRVFGPASTQEEVFSDMQPLIRSVLDGFNVCIFAYGQTGSGKTFTMSGPKVLTEESLGVNYRALNDLFNIKAQRKGTIDYEISVQMIEIYNEQVRDLLQDGGNRRLEIRNTPQKGLAVPDASIVPVTSTADVVELMNQGQKNRAVGSTAINDRSSRSHSCLSVHVQGKYLTSGAMLRGCMHLVDLAGSERVDKSEVVGDRLKEAQYINKSLSALGDVIASLAQKNSHVPYRNSKLTQLLQDSLGGQAKTLMFVHVSPELDAVGETISTLKFAERVASVELGAAKANKEGSEVRELKEQIATLKAALAKKEGEPENIQSTQSSP
notes: codon-optimized synthetic cDNA; source: E. coli BL21 Rosetta (DE3), purified (Talon beads); not shown: GFP, N-terminal, kept
Regarding B1, the “stoichiometry N” value in series [6] is 2.
